Assay results from patent US20240199746A1 (published 2024).
Where a chain is given by its changes, count along the chain named.

Experiments:
[1] = molecular target: T1, Ax1 protein, extracellular domain (human, UniProt P30530 26-451); assay: ELISA, mutant diluted 1:9
T1 construct: extracellular domain; also called Axl; Ark
T1 sequence (looked up): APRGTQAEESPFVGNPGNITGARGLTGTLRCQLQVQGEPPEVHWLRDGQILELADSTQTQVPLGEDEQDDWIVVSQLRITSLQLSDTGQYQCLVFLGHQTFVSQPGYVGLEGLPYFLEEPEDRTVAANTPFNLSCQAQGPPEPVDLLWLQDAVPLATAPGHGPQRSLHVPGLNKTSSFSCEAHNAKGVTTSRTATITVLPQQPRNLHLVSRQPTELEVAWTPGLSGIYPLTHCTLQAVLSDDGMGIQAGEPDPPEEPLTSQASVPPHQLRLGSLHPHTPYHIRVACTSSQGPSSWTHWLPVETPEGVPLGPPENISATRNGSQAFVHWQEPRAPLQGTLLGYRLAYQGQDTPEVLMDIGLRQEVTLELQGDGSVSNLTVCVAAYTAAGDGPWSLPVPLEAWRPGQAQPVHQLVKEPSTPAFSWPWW
Outline: (§1)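 Single-point-mutant antibody library from Comprehensive Positional Evolution, screened by ELISA for selective binding to the Ax1 extracellular domain at pH 6.0 over pH 7.4. Mutant antibodies tested at 1:3 and 1:9 dilutions.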

[2] = molecular target: T1, Ax1 protein, extracellular domain; assay: ELISA, mutant diluted 1:3
Outline: as §1

B1: LC-P095V (antibody, V domains shown)
VH: EVQLVQSGAEVKKPGATVKISCKVSGYSFTGHTMNWIRQPPGKGLEWIGLIKPSNGGTSYNQKFKGRVTISADKSISTAYLQWSSLKASDTAMYYCAHGHYESYFAMDYWGQGTLVTVSS
VL: DIQMTQSPSSLSASVGDRVTITCKASQDVSSAVAWYQQKPGQAPRLLIYWASTRHTGVPSRFSGSGSGTEFTLTISSLQPDDFATYYCQEHFSTVLTFGQGTKVEIK
notes: CPE single point mutant
[1]
  Affinity ELISA CPE mutant ratio (1:9, pH 6.0/7.4): 2.13
[2]
  Affinity ELISA CPE mutant ratio (1:3, pH 6.0/7.4): 1.87

B2: LC-P095W (antibody, V domains shown)
VH: B1 VH
VL: B1 VL with V95W
notes: CPE single point mutant
[1]
  Affinity ELISA CPE mutant ratio (1:9, pH 6.0/7.4): 2.26
[2]
  Affinity ELISA CPE mutant ratio (1:3, pH 6.0/7.4): 2.15

B3: LC-V029N (antibody, V domains shown)
VH: B1 VH
VL: B1 VL with V29N, V95P
notes: CPE single point mutant
[1]
  Affinity ELISA CPE mutant ratio (1:9, pH 6.0/7.4): 2.65
[2]
  Affinity ELISA CPE mutant ratio (1:3, pH 6.0/7.4): 2.6

B4: LC-W050F (antibody, V domains shown)
VH: B1 VH
VL: B1 VL with W50F, V95P
notes: CPE single point mutant
[1]
  Affinity ELISA CPE mutant ratio (1:9, pH 6.0/7.4): 3.5
[2]
  Affinity ELISA CPE mutant ratio (1:3, pH 6.0/7.4): 2.25

B5: LC-V029G (antibody, V domains shown)
VH: B1 VH
VL: B1 VL with V29G, V95P
notes: CPE single point mutant
[1]
  Affinity ELISA CPE mutant ratio (1:9, pH 6.0/7.4): 1.8
[2]
  Affinity ELISA CPE mutant ratio (1:3, pH 6.0/7.4): 1.94

B6: LC-T097I (antibody, V domains shown)
VH: B1 VH
VL: B1 VL with V95P, T97I
notes: CPE single point mutant
[1]
  Affinity ELISA CPE mutant ratio (1:9, pH 6.0/7.4): 4.05
[2]
  Affinity ELISA CPE mutant ratio (1:3, pH 6.0/7.4): 3.09

B7: LC-V029W (antibody, V domains shown)
VH: B1 VH
VL: B1 VL with V29W, V95P
notes: CPE single point mutant
[1]
  Affinity ELISA CPE mutant ratio (1:9, pH 6.0/7.4): 2.35
[2]
  Affinity ELISA CPE mutant ratio (1:3, pH 6.0/7.4): 2.31

B8: LC-V029D (antibody, V domains shown)
VH: B1 VH
VL: B1 VL with V29D, V95P
notes: CPE single point mutant
[1]
  Affinity ELISA CPE mutant ratio (1:9, pH 6.0/7.4): 2.68
[2]
  Affinity ELISA CPE mutant ratio (1:3, pH 6.0/7.4): 2.88
